Reference: paper PMC9161741

Target: T1, TFB2M T313E (human, UniProt Q9H5Q4 21-396, T313E)
T1 sequence: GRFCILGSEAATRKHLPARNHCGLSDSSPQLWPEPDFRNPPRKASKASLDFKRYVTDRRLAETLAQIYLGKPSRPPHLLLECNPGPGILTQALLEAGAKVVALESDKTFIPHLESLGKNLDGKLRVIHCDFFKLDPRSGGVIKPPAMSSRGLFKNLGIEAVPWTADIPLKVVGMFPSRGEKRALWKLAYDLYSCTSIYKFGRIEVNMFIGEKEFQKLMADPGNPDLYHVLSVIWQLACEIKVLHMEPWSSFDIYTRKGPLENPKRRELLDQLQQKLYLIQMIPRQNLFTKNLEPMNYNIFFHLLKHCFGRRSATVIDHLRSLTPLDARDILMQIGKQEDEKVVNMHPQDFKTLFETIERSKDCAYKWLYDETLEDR
Test: fluorescence anisotropy

B1: LSP (-17 to +19), fluorescein (dsDNA)
DNA 1: AAAAGTGCATACCGCCAAAAGATAAAATTTGAAATC
DNA 2: GATTTCAAATTTTATCTTTTGGCGGTATGCACTTTT
With B1 the Kd was > 150 nM.
